Results: patent US6426205 (MOUNT SINAI HOSPITAL, dated 2002)

Columns and labels:
Test in all cases: anti-MYC immunoprecipitation from yeast lysate, immunoblot
[1] = target: T1, Cdc4 (budding yeast, UniProt P07834 1-779)
T1 construct: Endogenous protein in yeast lysates, detected with anti-Cdc4 antibodies; also called endogenous Cdc4
T1 sequence: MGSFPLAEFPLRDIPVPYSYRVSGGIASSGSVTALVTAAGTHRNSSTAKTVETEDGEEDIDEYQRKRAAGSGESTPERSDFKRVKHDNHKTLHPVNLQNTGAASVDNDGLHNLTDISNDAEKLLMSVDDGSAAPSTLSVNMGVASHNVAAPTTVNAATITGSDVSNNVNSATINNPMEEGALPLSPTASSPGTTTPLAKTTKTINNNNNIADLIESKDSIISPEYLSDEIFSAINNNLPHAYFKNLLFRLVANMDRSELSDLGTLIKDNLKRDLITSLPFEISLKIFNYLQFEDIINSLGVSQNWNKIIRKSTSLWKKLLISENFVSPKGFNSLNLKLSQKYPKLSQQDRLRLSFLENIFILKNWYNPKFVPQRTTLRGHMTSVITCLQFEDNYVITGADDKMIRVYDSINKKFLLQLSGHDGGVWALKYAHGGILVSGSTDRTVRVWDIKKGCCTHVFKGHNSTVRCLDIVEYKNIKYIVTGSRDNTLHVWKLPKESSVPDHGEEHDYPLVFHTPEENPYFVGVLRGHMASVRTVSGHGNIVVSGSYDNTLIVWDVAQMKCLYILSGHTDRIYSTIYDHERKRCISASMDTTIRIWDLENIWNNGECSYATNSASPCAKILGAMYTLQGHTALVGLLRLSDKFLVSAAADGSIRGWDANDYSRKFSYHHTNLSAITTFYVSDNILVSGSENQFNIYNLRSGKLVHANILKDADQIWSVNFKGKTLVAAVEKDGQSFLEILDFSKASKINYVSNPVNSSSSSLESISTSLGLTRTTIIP

[2] = target: T2, Grr1 (budding yeast, UniProt P24814 1-1151)
T2 construct: Endogenous protein in yeast lysates, detected with anti-Grr1 antibodies; also called endogenous Grr1
T2 sequence: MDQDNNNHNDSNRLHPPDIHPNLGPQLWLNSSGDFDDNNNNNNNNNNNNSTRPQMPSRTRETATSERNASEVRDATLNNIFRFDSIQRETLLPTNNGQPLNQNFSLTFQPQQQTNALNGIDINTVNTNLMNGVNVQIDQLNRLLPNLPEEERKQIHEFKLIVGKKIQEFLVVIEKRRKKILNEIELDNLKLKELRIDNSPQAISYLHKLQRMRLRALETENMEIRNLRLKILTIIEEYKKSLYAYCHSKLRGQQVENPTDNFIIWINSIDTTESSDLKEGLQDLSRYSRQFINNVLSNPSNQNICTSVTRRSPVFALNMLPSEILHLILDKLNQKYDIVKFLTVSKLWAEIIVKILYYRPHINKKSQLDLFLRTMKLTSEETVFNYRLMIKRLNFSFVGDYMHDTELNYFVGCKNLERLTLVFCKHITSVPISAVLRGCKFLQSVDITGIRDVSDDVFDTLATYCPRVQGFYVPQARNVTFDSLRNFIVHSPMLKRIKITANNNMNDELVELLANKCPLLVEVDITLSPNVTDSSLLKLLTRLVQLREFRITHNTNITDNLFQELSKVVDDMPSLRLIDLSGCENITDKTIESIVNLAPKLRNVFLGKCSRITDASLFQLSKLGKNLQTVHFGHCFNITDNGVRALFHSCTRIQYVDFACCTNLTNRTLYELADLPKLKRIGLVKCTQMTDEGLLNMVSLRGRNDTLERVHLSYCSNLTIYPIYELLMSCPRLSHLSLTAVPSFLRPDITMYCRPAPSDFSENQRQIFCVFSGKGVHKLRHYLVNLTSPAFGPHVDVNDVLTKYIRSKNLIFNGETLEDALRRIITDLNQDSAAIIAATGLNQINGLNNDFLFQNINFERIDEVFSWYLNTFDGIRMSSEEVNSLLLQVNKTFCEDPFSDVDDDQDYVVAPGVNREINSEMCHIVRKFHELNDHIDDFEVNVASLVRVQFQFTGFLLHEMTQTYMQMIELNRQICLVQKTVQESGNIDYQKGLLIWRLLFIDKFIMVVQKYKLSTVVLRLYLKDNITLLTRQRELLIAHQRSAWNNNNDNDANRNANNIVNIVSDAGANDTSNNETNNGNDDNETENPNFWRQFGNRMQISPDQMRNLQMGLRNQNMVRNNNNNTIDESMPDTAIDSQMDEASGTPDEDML

[3] = target: T3, Met30 (yeast, UniProt P39014 1-640)
T3 construct: Endogenous protein in yeast lysates, detected with anti-Met30 antibodies; also called endogenous Met30
T3 sequence: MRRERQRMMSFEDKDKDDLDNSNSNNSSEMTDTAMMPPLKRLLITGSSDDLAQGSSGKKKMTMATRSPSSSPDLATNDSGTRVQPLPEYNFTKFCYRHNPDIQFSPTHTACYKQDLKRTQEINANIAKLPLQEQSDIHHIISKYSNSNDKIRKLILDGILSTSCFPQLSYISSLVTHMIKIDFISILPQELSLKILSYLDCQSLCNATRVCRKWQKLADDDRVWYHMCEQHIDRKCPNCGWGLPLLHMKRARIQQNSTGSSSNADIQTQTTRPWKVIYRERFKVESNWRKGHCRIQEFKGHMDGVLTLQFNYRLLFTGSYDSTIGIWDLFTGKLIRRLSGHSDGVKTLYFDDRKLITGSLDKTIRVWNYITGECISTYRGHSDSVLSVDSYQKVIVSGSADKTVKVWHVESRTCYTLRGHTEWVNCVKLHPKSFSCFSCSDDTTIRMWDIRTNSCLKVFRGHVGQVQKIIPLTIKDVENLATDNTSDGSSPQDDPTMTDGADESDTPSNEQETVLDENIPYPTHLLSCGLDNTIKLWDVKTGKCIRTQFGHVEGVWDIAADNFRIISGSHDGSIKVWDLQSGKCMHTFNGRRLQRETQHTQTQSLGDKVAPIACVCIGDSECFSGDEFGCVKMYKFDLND

Measured: binding result

B1: Cdc53^Δ9-280 (MYC-tagged) (other, not shown: small tags and cut ends)
chain: MSETLPRSMALNKVLITDHIEKLENEFVVLLDARDIEKITSLYALIRRDFTLIPRMASVFENYVKKTGENEISSLLAMHKHNIMKNENANPKKLALMTAHSLSPKDYIKKLLEVHDIFSKIFNESFPDDIPLAKALDNACGAFININEFALPAGSPKSATSKTSEMLAKYSDILLKKATKPEVASDMSDEDIITIFKYLTDKDAFETHYRRLFAKRLIHGTSTSAEDEENIIQRLQAANSMEYTGKITKMFQDIRLSKILEDDFAVALKNEPDYSKAKYPDLQPFVLAENMWPFSYQEVEFKLPKELVPSHEKLKESYSQKHNGRILKWLWPLCRGELKADIGKPGRMPFNFTVTLFQMAILLLYNDADVLTLENIQEGTSLTIQHIAAAMVPFIKFKLIQQVPPGLDALVKPETQFKLSRPYKALKTNINFASGVKNDILQSLSGGGHDNHGNKLGNKRLTEDERIEKELNTERQIFLEACIVRIMKAKRNLPHTTLVNECIAQSHQRFNAKVSMVKRAIDSLIQKGYLQRGDDGESYAYLA
notes: Deletion built with natural and engineered restriction sites; also called CDC53^MΔ9-280; pMT1850
no binding: [1] | [2] | [3]
